# Data reported in patent US20140325692, “BLUE-LIGHT INDUCIBLE SYSTEM FOR GENE EXPRESSION” (BOARD OF REGENTS, THE UNIVERSITY OF TEXAS SYSTEM, published 2014).
# T1: EL222 (14-222) wild type (Erythrobacter litoralis, UniProt Q2NB98 SEQ:1-209)
# T1 chain: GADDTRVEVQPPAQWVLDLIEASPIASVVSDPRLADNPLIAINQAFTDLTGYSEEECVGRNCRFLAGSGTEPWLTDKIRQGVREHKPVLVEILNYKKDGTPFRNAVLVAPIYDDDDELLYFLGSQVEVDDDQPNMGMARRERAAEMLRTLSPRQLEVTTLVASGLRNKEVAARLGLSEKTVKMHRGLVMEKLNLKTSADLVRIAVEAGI
# B1: Clone-22 (dsDNA)
# DNA 1: TATAGGGCTTTAGTCTGTATGTGGGATGTGTGT
# DNA 2: ACACACATCCCACATACAGACTAAAGCCCTATA
# B2: C1-2 (dsDNA)
# DNA 1: TAGGTAGCCTTTAGTCCATG
# DNA 2: CATGGACTAAAGGCTACCTA
# B3: Clone-3 (dsDNA)
# DNA 1: TAGACTTAAGTCTAGTACACAAGTTTTCCAGGG
# DNA 2: CCCTGGAAAACTTGTGTACTAGACTTAAGTCTA
# B4: Clone-53 (dsDNA)
# DNA 1: CATGGCCTAAGGACTGTAAGTACTATTAAATAC
# DNA 2: GTATTTAATAGTACTTACAGTCCTTAGGCCATG
# B5: Clone-77 (dsDNA)
# DNA 1: CAGATACATGCTTTAGTACGTATATTCGATGTC
# DNA 2: GACATCGAATATACGTACTAAAGCATGTATCTG
# B6: Clone-2 (dsDNA)
# DNA 1: AGCTAGGCTTTTGGTCTGTATAGCTGTCTTATA
# DNA 2: TATAAGACAGCTATACAGACCAAAAGCCTAGCT
# B7: Clone-1 (dsDNA)
# DNA 1: TCTACGTTATAGGTAGCCTTTAGTCCATGCTGATTCGTTTTCAAC
# DNA 2: GTTGAAAACGAATCAGCATGGACTAAAGGCTACCTATAACGTAGA
# B8: Clone-78 (dsDNA)
# DNA 1: GCCCTAAGACTGTATCTTATTCGTGAGTTTTAA
# DNA 2: TTAAAACTCACGAATAAGATACAGTCTTAGGGC
# How the values were obtained:
# Conditions in all cases: tags: His6-Gβ1 (pHis6-Gβ1-Parallel1); label: 5'-32P
# EL222 (14-222) wild type [1] = target: T1, EL222 (14-222) wild type; assay: EMSA; light, 4 C, 3 mM MgCl2; 33 bp randomized region printed
# Procedure: (§1) DNA pools derived from each SELEX cycle were PCR amplified as described previously in the SELEX procedure. Complementary oligonucleotides for each individual SELEX-derived clone sequence were chemically synthesized (Sigma), heated to 95-100° C. for 5 min and left to cool to room temperature to anneal the oligonucleotides. DNAs were 5′-end labeled in a 50 μl reaction containing (final concentrations) 68 nM DNA substrate, 70 mM Tris-Cl pH 7.6, 10 mM MgCl₂, 5 mM DTT, 0.6 μCi ATP [γ-³²P] (Perkin Elmer, cat. no. BLU502Z500UC), and 0.2 U PNK (New England Biolabs Inc.). The reaction was incubated for 30 min at 37° C., followed by a 20 min incubation at 65° C. to heat inactivate the enzyme. The ³²P-labeled DNA was purified from the unincorporated ATP [γ-³²P] using Illustra ProbeQuant G-50 micro-columns (GE Healthcare). Approximately 13.6 nM radiolabeled DNA was incubated with varying concentrations of WT-EL222 in the same binding buffer used for SELEX procedure for 25 min at 4° C. with continuous illumination with a white LED light. Reactions were analyzed on a 5% native gel (Acrylamide/Bis 29:1) and run in TBE buffer at 150 V for 1.5 hr at 4° C. The gel was exposed to a PhosphorImaging plate and visualized using FujiFilm FLA-5100 imaging system.
# EL222 (14-222) wild type [2] = target: T1, EL222 (14-222) wild type; assay: EMSA; light, 4 C, 3 mM MgCl2
# Procedure: as §1
# EL222 (14-222) wild type [3] = target: T1, EL222 (14-222) wild type; assay: EMSA; white LED light, 4 C, 10 mM Tris pH 8.0, 80 mM NaCl, 3 mM MgCl2
# Procedure: as §1
binder,measurement,setting,value
B1,binding result,EL222 (14-222) wild type [1],binds
B2,binding result,EL222 (14-222) wild type [2],binds
B3,binding result,EL222 (14-222) wild type [1],binds
B4,binding result,EL222 (14-222) wild type [1],binds
B5,binding result,EL222 (14-222) wild type [1],binds
B6,binding result,EL222 (14-222) wild type [1],binds
B7,binding result,EL222 (14-222) wild type [3],binds
B8,binding result,EL222 (14-222) wild type [1],binds
